Measured values published in patent US20230174648A1 (published 2023).

B1: Antibody 2 (antibody, V domains shown)
VH: QVQLVQSGAEVKKPGASVKVSCKASGYTFTGYYIFWMRQAPGQGLEWMGWINPNSGGTDYAQKFQGRVTMTMDTSISTAYMELSRLRSDDTAVYYCAREDCTSISCSFDYWGQGTLVTVSS
VL: not shown
notes: Human variable region with rat IgG2b Fc
B2: Antibody 6 (antibody, rat IgG2b, V domains shown)
VH: EVQLLESGGGLVQPGGSLRLSCAASGFTLSSYAMSWVRQAPGKGLEWVSISSGSGANTYNADSLKGRFTISRDNSKNTLFLQMNSLRAEDTAVYYCARLRFFDWFDYWGQGALVTVSS
VL: QAVVTQESALTTSPGETVTLTCRSSTGAVTTSNYANWVQEKPDHLFTGLIGGTNNRTPGVPARFSGSLIGDKAALTITGAQTEDEAIYFCALWYSNHWVFGGGTKLTVL
notes: as for B1
B3: Antibody 22 (antibody, V domains shown)
VH: B2 VH
VL: B2 VL
notes: Same variable domains as Antibody 6 with human IgG1 Fc
B4: Antibody 27 (antibody, V domains shown)
VH: B2 VH
VL: B2 VL
B5: Antibody 5 (antibody, rat IgG2b, V domains shown)
VH: QVQLVESGGGVVQPGRSLRLSCAASGFTFSNYGMHWVRQAPGKGPEWVAVIWYDGSYKYYGDSVKGRFTISRDNSKNTLYLQMNSLRAEDTAVYYCVRESVGYSSGWSFDYWGQGILVTVSS
VL: DIQMTQSPSTLSASVGDRVTITCRASQSISSWLAWYQQKPGKVPKLLIYKASSLKTGVPSRFSGNGSGTEFTLTISSLQPDDFATYYCQQYNSYSWTFGQGTKVEIK
notes: as for B1
B6: Antibody 16 (antibody, mouse IgG2a, V domains shown)
VH: QVQLQQSGAELAKPGASVKMSCKASGYTFTSYWMHWVKQRPGQGLEWIGYIDPSTGYTFHNQKFKDKATLTADKSSTTAYMQLRSLTSEDSAVYYCARRDYGSSFYAMDYWGHGTSITVSS
VL: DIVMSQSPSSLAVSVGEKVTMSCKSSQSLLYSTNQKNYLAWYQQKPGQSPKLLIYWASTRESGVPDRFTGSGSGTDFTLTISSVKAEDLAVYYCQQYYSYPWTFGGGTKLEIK
notes: Mouse IgG2a Fc
B7: Antibody 17 (antibody, mouse IgG2a, V domains shown)
VH: EVQVVESGGGLVKPGGSLKISCAASGFAFSSYDMSWVRQTPEKRLEWVAYISSGGGSIYYAETVKGRFTISRDNAKNTLYLQMSSLKSEDTAMYYCVRHGYHEYFDVWGAGTTVTVSS
VL: DVLMTQTPLSLPVSLGDQASISCRSSQSIVHSNGNTYLEWYLQKPGQSPKLLIYKVSNRFSGVPDRFSGSGSGTDFTLKISRVEAEDLGVYFCFQGSHFPYTFGGGTKLEIK
notes: Mouse IgG2a Fc
B8: Antibody 19 (antibody, mouse IgG1, V domains shown)
VH: QVQLQQSGAELVRPGASVTLSCKASGYTFTDYEMHWVKQTPVHGLEWIGAIDPETGGTAYNQKFKGKATLTADKSSSTAYMELRSLTSEDSAVYYCTGITRFAYWGQGTLVTVSA
VL: SIVMTQTPKFLLVSAGDRVTITCKASQSVSNDVAWYQQKPGQSPKLLIYYASNRYTGVPDRFTGSGYGTDFTFTISTVQAEDLAVYFCQQDYSSPWTFGGGTKLEIK
notes: Mouse IgG1 Fc

Tests used:
[1] = molecular target: T1, cynomolgus monkey SIRPα, extracellular domain (cynomolgus monkey, UniProt A0A2K5VYQ9 31-372); experiment: SPR (BIACORE), antibody captured, monomeric SIRPα as analyte
T1 construct: extracellular domain; Monomeric protein in SPR; also called Cyno SIRPα; monomeric cynomolgus monkey SIRPα

[2] = molecular target: T2, human SIRPα V1, extracellular domain (human, UniProt P78324 31-373); experiment: SPR (BIACORE), antibody captured on chip, monomeric SIRPα ECD as analyte, 1:1 model
T2 construct: also called hSIRPα V1; monomeric human SIRPα
Description: (§1) The affinities of these SIRPα antibodies were determined using surface plasmon resonance. The SIRPα antibodies were flowed onto a chip and captured by an anti-human IgG covalently coupled to the surface of the chip. A three-point titration of the extracellular binding domain of hSIRPα was performed per the manufacturer’s recommended protocols.

[3] = molecular target: T3, human SIRPα V1-His monomer protein (human, UniProt P78324 31-373); experiment: BLI (ForteBio Octet), antibody on AMC biosensor, SIRP-His monomer 100/33.3/11.1 nM, 1:1 model, averaged KD
T3 construct: SIRP-His monomer used as analyte in BLI (Octet); also called SIRP-His; monomeric human SIRPα; not shown: His tag

[4] = molecular target: T4, human SIRPβ1-His monomer protein (human, UniProt O00241 30-371); experiment: as above
T4 construct: also called SIRP-His; monomeric human SIRPβ1; not shown: His tag
T4 sequence (O00241 30-371 limits assumed): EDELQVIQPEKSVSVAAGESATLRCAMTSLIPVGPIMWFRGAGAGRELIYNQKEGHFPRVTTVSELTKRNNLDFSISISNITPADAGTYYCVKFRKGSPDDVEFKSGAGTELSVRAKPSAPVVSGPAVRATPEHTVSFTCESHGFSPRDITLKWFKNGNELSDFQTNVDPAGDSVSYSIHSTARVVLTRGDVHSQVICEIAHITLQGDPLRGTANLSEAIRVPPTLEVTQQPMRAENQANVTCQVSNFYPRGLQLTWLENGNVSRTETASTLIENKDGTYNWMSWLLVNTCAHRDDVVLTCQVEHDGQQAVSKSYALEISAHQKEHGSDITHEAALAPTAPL

[5] = molecular target: T1, cynomolgus monkey SIRPα, extracellular …; experiment: SPR (BIACORE), antibody captured on chip, monomeric SIRPα as analyte, 1:1 model
Description: as §1

[6] = molecular target: T1, cynomolgus monkey SIRPα, extracellular …; experiment: SPR (BIACORE), antibody captured by anti-human IgG, monomeric SIRPα as analyte, 1:1 model
Description: as §1

[7] = molecular target: T2, human SIRPα V1, extracellular domain; experiment: SPR (BIACORE), antibody captured by anti-human IgG, monomeric SIRPα ECD as analyte, 1:1 model
Description: as §1

[8] = molecular target: T5, human SIRPα V2, extracellular domain (human, UniProt P78324 31-373); experiment: as above
T5 construct: also called hSIRPα V2
Description: as §1

Row | Binder | Kd [3] [nM] | Kd [4] [nM] | other results
1 | B1 | 11 | 3620 | binding result [1]: no binding; Kd [2]: 89.5 nM
2 | B2 | 1.21 | 0.456 | Kd [5]: 56.1 nM; Kd [2]: 4.1 nM
3 | B3 |  |  | Kd [6]: 35.5 nM; Kd [7]: 2.59 nM; Kd [8]: 11.5 nM
4 | B4 |  |  | Kd [6]: 30.6 nM; Kd [7]: 2 nM
5 | B5 | 17.3 |  | 
6 | B6 | 1.21 | 83.9 | 
7 | B7 | 206 |  | 
8 | B8 | 3.79 | 75.9 | 
